The target in data set [1] is AtPIF3-bHLH K362A mutant (Arabidopsis thaliana) (UniProt O80536). Description: SEC; Superdex75 size exclusion column, UV trace at 280 nm, compared with molecular weight standards (albumin, carbonic anhydrase, cytochrome c, vitamin B12); gel filtration buffer of the methods: 30 mM HEPES, 500 mM NaCl, pH 7.4; oligomeric state of the protein with itself. A general note: SEC sorts molecules by how far they enter the pores of the column.

Data set [2] deals with the molecule itself. The description is as above.
Data set [3] addresses T1, AtPIF3-bHLH WT (Arabidopsis thaliana, UniProt O80536 340-397).
T1 sequence: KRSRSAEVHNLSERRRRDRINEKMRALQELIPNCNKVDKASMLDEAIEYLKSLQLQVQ
In words: ITC; ITC: 30 mM HEPES, 125 mM NaCl, pH 7.5, 25 C, 400 uM protein into 40 uM DNA; fEMSA: 30 mM HEPES, 500 mM NaCl, pH 7.4, on ice 30 min, 3 uM probe, 10% native gel in 0.5x TBE at 4 C. As to conditions: protein: recombinant; tags: C-terminal His6; chain copies: 2; blunt.

The target of data set [4] is T1, AtPIF3-bHLH WT. In words: EMSA; DNA:protein 1:1 to 1:20; ITC: 30 mM HEPES, 125 mM NaCl, pH 7.5, 25 C, 400 uM protein into 40 uM DNA; fEMSA: 30 mM HEPES, 500 mM NaCl, pH 7.4, on ice 30 min, 3 uM probe, 10% native gel in 0.5x TBE at 4 C. As to conditions: protein: recombinant; tags: C-terminal His6; chain copies: 2; label: 5' fluorescein; blunt.

For the molecule “AtPIF3-bHLH K362A mutant (from UniProt O80536 343-392) (domain or fragment)”, in data set [1], the stoichiometry N (usually the number of molecules, sites or subunits per partner or assembly) came to 2.

B1: AtPIF3-bHLH M399A mutant (domain or fragment, Arabidopsis thaliana, UniProt O80536 343-399, looked up)
chain: RSAEVHNLSERRRRDRINEKMRALQELIPNCNKVDKASMLDEAIEYLKSLQLQVQIA
notes: bHLH domain of PIF3 (AT1G09530), Arabidopsis thaliana, with M399A; Site-directed mutant of m1
In the case of B1, the “stoichiometry N” value in data set [2] is 2.

B2: G-box (PER2), ITC (dsDNA)
DNA 1: AGGAACACGTGACCC
DNA 2: GGGTCACGTGTTCCT
In the case of B2, in the data set with AtPIF3-bHLH WT [3], the Kd (commonly the concentration at which binding is half-saturated) is 320 ± 14 nM.

B3: pPIL1 G-box (dsDNA)
DNA 1: GCATTCACGTGAAGT
DNA 2: ACTTCACGTGAATGC
As to B3, the binding result with AtPIF3-bHLH WT [4] is reported as “binds”.

B4: Arabidopsis thaliana PIF3-bHLH (AtPIF3-bHLH) recombinant protein, wild type (domain or fragment, UniProt O80536 340-399, looked up)
chain: KRSRSAEVHNLSERRRRDRINEKMRALQELIPNCNKVDKASMLDEAIEYLKSLQLQVQIM
notes: Cloned between NheI and XhoI of pET21b; also called PIF3-bHLH–His6; WT; source: E. coli Rosetta (DE3), pET21b, purified (HisTrap FF, Superdex75 gel filtration); not shown: His6, C-terminal, kept
As to B4, the “stoichiometry N” value in data set [2] is 2.
